From patent US20240139242A1

Biological target: OT-I T cell receptor on OTi target T cells (splenocytes from OT-I mouse) (mouse)
Experiment: cell-based or functional assay

“FITC-conjugated H2Kb-SIINFEKL tetramer (from UniProt P01901 22-305) (peptide-MHC)” showed a cytotoxicity of CD8 CAR T cells on OTi cells greater than 50%.
